From patent publication US20260242485A1 (LEPU BIOPHARMA, published 2026) come the findings set out here.

Where two headings read alike, the source gives them in different places.

In experiment [1] the target is T1, human CD32B expressed on CHO-K1 cells (human, UniProt P31994 43-310).
T1 construct: whole, on cells; also called hCD32B
T1 sequence (looked up): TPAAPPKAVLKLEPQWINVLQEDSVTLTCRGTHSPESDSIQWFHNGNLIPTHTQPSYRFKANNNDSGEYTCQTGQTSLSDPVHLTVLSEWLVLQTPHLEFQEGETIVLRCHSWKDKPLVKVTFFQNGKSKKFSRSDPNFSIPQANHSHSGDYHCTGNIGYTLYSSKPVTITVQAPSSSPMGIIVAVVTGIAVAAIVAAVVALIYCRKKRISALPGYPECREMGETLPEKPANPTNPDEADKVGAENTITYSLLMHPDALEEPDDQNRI
Briefly: flow cytometry, CHO-K1-hCD32B cells, geometric mean. Here is the method: (§1) In order to evaluate the binding activity of the chimeric mAbs to human CD16A expressed on cells, cell-based binding assay was employed as followed. […] The antibody dilutions were incubated with 1×10⁵ indicated cells in the 96-well microplate for one hour at 4° C. The antibodies binding to the antigen on the cell surface were detected with PE fluorophore-conjugated anti-human IgG Fc secondary antibodies (ThermoFisher scientific, Cat. No. 12-4998-82) at a dilution rate of 1:1000. Cells were analyzed by flow cytometer LSRFortessa Cell Analyzer (BD Biosciences). Data were analyzed with Flowjo 10.0 software. The graph and statistics analysis were generated with four-parameter nonlinear regression curve fit in Graphpad Prism 9 software.
To exclude the non-specific binding of the CD16A chimeric antibody to human CD16B and CD32B expressed on cells, cell-based binding assay was performed as described above. Firstly, CHO-K1 cells were stably transferred with one human CD16B spliced isoform hCD16B-NA1 and human CD32B. Then, the cells were incubated with the indicated concentrations of CD16A chimeric antibodies.

For experiment [2], the target named is T2, human CD16A-158V expressed on CHO-K1 cells (human, UniProt P08637 17-254).
T2 construct: whole, on cells; also called hCD16A-158V; CHO-K1-hCD16A-158V
T2 sequence (P08637 17-254 F176V): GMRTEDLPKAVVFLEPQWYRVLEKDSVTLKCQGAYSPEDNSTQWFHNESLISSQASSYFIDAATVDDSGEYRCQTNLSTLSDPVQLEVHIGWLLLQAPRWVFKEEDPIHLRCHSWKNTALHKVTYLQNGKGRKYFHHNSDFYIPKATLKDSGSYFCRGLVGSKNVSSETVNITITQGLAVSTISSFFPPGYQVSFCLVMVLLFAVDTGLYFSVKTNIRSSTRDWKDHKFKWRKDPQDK
The experiment can be described thus: flow cytometry, CHO-K1-hCD16A-158V cells, geometric mean. (In flow cytometry, cells or beads pass a laser one at a time.)

In experiment [3] the target is T3, human CD16B-NA2 ECD his tag protein (human, UniProt O75015 17-200).
T3 construct: extracellular domain; Bought protein; also called hCD16B-NA2-his; hCD16B-NA2 protein
T3 sequence (O75015 17-200 N65S limits assumed): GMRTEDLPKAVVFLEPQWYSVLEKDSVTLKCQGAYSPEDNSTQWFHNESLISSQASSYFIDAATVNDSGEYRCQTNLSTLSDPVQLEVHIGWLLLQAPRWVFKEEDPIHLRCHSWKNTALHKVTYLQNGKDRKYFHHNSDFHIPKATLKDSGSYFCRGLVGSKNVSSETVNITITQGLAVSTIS
Briefly: ELISA, hCD16B-NA2-his coated at 2 ug/mL, OD450. The method, then: In order to determine the binding ability of the chimeric Abs to human CD16A protein, ELISA-based binding assay was performed as followed. […] The mixture was incubated for 1 hour at room temperature (RT). The primary antibody was recognized by a detective antibody against human IgG Fc which was conjugated with horseradish peroxidase (HRP) (Jackson Immuno, Cat. No. 109-035-008). Tetramethylbenzidine (TMB), a substrate of HRP, was added to the wells to visualize the binding signal. After sufficient color development, stop solution was added to the wells. The absorbance of the signal was detected at 450 nm with Envision multilabel plate readers (PerkinElemer). The graph and statistics analysis were generated with four-parameter nonlinear regression curve fit in Graphpad Prism 9 software.
In order to determine the binding ability of the chimeric Abs to human CD16B protein, ELISA binding assay was performed as previously described. Three spliced isoforms of CD16B including human CD16B-NA1 ECD his tag protein (hCD16B-NA1-his, Acro Bio, Cat: No. CDB-H5227), human CD16B-NA2 ECD his tag protein (hCD16B-NA2-his, Acro Bio, Cat: No. CDB-H82Ea) and human CD16B-SH-his protein, were used as the coating antigens at 2 μg/mL.
On the technique in general: ELISA stands for enzyme-linked immunosorbent assay.

Another experiment has as its target T4, hCD16A-158F-his protein (human, UniProt P08637 17-208).
T4 construct: Bought protein
Briefly: SPR (Biacore 8K), antibody captured on Protein A chip, antigen at 50 nM. The method, then:
(§2) The binding affinity of the chimeric antibodies to human CD16A was determined with Biacore™. Briefly, the antibodies were captured with a Protein A chip. […] The antigen was allowed to dissociate for 500 s. The experiment was carried out on a Biacore™ 8K. Data analysis was carried out using Biacore™ 8K evaluation software.
In general terms: Surface plasmon resonance follows binding to a sensor surface in real time, without labels.

The target of another experiment is T5, hCD16A-158V-his protein (human, UniProt P08637 17-208).
T5 construct: extracellular domain; Bought protein; also called human CD16A-158V-his; Human CD16A-158V (protein)
T5 sequence (P08637 17-208 F176V): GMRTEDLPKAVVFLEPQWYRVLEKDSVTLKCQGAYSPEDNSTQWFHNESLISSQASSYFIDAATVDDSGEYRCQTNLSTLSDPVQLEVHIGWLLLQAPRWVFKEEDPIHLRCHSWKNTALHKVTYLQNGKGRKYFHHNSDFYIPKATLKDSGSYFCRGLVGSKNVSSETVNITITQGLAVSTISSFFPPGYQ
The description is as above. Here is the method:
as §2

The target of experiment [4] is T6, cynomolgus CD16 expressed on CHO-K1 cells (cynomolgus, UniProt Q8SPW2 17-254).
T6 construct: whole, on cells; also called cyno CD16; CHO-K1-cynoCD16
T6 sequence (Q8SPW2 17-254): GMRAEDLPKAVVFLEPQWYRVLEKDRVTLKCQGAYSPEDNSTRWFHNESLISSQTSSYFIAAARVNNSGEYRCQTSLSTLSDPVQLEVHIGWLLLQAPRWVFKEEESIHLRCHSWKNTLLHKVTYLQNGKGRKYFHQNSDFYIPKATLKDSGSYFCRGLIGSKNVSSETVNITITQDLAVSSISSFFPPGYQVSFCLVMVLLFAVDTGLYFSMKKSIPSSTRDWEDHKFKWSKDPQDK
The experiment can be described thus: flow cytometry, CHO-K1-cyno CD16 cells, geometric mean. Here is the method: as §1
(§3) The assay was performed following the protocol described above.

For experiment [5], the target named is T2, human CD16A-158V expressed on CHO-K1 …. The experiment can be described thus: flow cytometry, CHO-K1-hCD16A-158V cells, geometric mean. Here is the method: as §1, §3
The source holds these as a separate data set.

Broadly, the EC50 (read off the curve) is the midpoint of the concentration-response curve. Usually Kd stands for the equilibrium constant for the complex coming apart. What is called koff is the rate constant with which the complex falls apart. Higher therefore signals fast dissociation. As usually defined, the kon is the rate constant with which the complex forms.

T4 sequence (P08637 17-208 limits assumed): as the sequence (P08637 17-208 F176V) above, with V160F counted along it

B1: P2C47-hIgG1 LALAPG (antibody)
heavy: QVQLVQSGAEVKKPGESLKVSCKASGYTFTSYYMHWVRQAPGQGLEWMGAIEPMYGSTSYAQKFQGRVTMTRDTSTSTVYMELSSLRSEDTAVYYCARGSAYYYDFADYWGQGTLVTVSSASTKGPSVFPLAPSSKSTSGGTAALGCLVKDYFPEPVTVSWNSGALTSGVHTFPAVLQSSGLYSLSSVVTVPSSSLGTQTYICNVNHKPSNTKVDKKVEPKSCDKTHTCPPCPAPEAAGGPSVFLFPPKPKDTLMISRTPEVTCVVVDVSHEDPEVKFNWYVDGVEVHNAKTKPREEQYNSTYRVVSVLTVLHQDWLNGKEYKCKVSNKALGAPIEKTISKAKGQPREPQVYTLPPSREEMTKNQVSLTCLVKGFYPSDIAVEWESNGQPENNYKTTPPVLDSDGSFFLYSKLTVDKSRWQQGNVFSCSVMHEALHNHYTQKSLSLSPGK
light: SYVLTQPSSVSVAPGQTATISCGGHNIGSKNVHWYQQRPGQSPVLVIYQDNKRPSGIPERFSGSNSGNTATLTISGTQAMDEADYYCQVWDNYSVLFGGGTKLTVLGQPKANPTVTLFPPSSEELQANKATLVCLISDFYPGAVTVAWKADGSPVKAGVETTKPSKQSNNKYAASSYLSLTPEQWKSHRSYSCQVTHEGSTVEKTVAPTECS
notes: also called benchmark antibody P2C47
In the case of B1, the binding result in experiment [1] is on record as “no binding (tested: 100 nM)”; in experiment [3] it was “no binding (tested: 20 nM)”. In addition, the entries for the “EC50 (read off the curve)” value in experiment [2], in experiment [4] and in experiment [5] were around 0.5 nM, around 0.7 nM and around 0.4 nM, respectively. Further, the Kd with hCD16A-158F-his protein turned out to be 2.23 nM; with hCD16A-158V-his protein it was 1.68 nM. The koff with hCD16A-158F-his protein is 0.002 s⁻¹; with hCD16A-158V-his protein it was 0.00135 s⁻¹. Also, the kon in the experiment with hCD16A-158F-his protein worked out at 897000 M⁻¹ s⁻¹; with hCD16A-158V-his protein, 804000 M⁻¹ s⁻¹.

B2: 45H6E8-hIgG1 LALAPG (antibody)
heavy: EVQLQQSGAELVRSGASVKLSCTASGFNIKDYYMQWVKQRPEQGLEWIGWIDPENGDTEYAPKFQGKATMTADTSSNTAYLQLSSLTSEDTAVYYCTTGGNYVDWGQGTTLTVSSASTKGPSVFPLAPSSKSTSGGTAALGCLVKDYFPEPVTVSWNSGALTSGVHTFPAVLQSSGLYSLSSVVTVPSSSLGTQTYICNVNHKPSNTKVDKKVEPKSCDKTHTCPPCPAPEAAGGPSVFLFPPKPKDTLMISRTPEVTCVVVDVSHEDPEVKFNWYVDGVEVHNAKTKPREEQYNSTYRVVSVLTVLHQDWLNGKEYKCKVSNKALGAPIEKTISKAKGQPREPQVYTLPPSREEMTKNQVSLTCLVKGFYPSDIAVEWESNGQPENNYKTTPPVLDSDGSFFLYSKLTVDKSRWQQGNVFSCSVMHEALHNHYTQKSLSLSPGK
light: DIVMTQSQKFMSTSVGDRVSITCKASQNVGTAVAWYQQKPGQSPKLLIYSASNRYTGVPDRFTGSGSGTDFTLTISNMQSEDLADYFCQQYSSYPLLTFGAGTNLELKRTVAAPSVFIFPPSDEQLKSGTASVVCLLNNFYPREAKVQWKVDNALQSGNSQESVTEQDSKDSTYSLSSTLTLSKADYEKHKVYACEVTHQGLSSPVTKSFNRGEC
notes: also called 45H6E8 chimeric antibody
As to B2, the binding result is “no binding (tested: 100 nM)” in experiment [1] and “no binding (tested: 20 nM)” in experiment [3]. Also, the “EC50 (read off the curve)” value in experiment [2] was around 0.5 nM; in experiment [4] it was around 0.7 nM; in experiment [5], around 0.4 nM. For the same molecule, the Kd with hCD16A-158F-his protein came out at 1.17 nM; with hCD16A-158V-his protein it was 1.86 nM. Besides, the koff was 0.00455 s⁻¹ with hCD16A-158F-his protein and 0.00655 s⁻¹ in the experiment with hCD16A-158V-his protein. Besides, the kon turned out to be 3.9e+06 M⁻¹ s⁻¹ with hCD16A-158F-his protein and 3.52e+06 M⁻¹ s⁻¹ with hCD16A-158V-his protein.
